Assay results as given in the supplement of paper PMC7877785.
± gives the uncertainty stated by the source.

Experiment: self-splicing fitness, log relative to wild type (ln ratio); higher = more splicing; Tetrahymena group I intron in knt gene, E. coli kanamycin selection, DiMSum; sequences stand for … in CUCUCU…GGAGGGAAAAGUUAUCAGGCAUGCACCUGGUAGCUAGUCUUUAAACCAAUAGAUUGCAUCGGUUUAAAAGGCAAGACCGUCAAAUUGCGGGAAAGGGGUCAACAGCCGUUCAGUACCAAGUCUCAGGGGAAACUUUGAGAUGGCCUUGCAAAGGGUAUGGUAAUAAGCUGACGGACAUGGUCCUAACCACGCAGCCAAGUCCUAAGUCAACAGAUCUUCUGUUGAUAUGGAUGCAGUUCACAGACUAAAUGUCGGUCGGGGAAGAUGUAUUCUUCUCAUAAGAUAUAGUCGGACCUCUCCUUAAUGGGAGCUAGCGGAUGAAGUGAUGCAACACUGGAGCCGCUGGGAACUAAUUUGUAUGCGAAAGUAUAUUGAUUAGUUUUGGAGUACUCGUGGUCG
How it was run: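 Six replicate transformations of E. coli BL21(DE3) with a pET-22b(+) library were grown overnight at 37°C or 30°C. The library randomised all eight P1ex-region intron nucleotides, the intron lying in the knt kanamycin-resistance gene, and plates were LB agar with or without 25 μg/mL kanamycin plus 100 μg/mL carbenicillin, 50 μM IPTG and 0.2% rhamnose. Pooled colonies were amplicon-sequenced on an Illumina HiSeq 2500, and fitness is the DiMSum error-weighted combination of wild-type-normalised replicate fold changes, kanamycin versus none.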

Sequence	self-splicing fitness (ln) (30 °C)	self-splicing fitness (ln) (37 °C)
UGGAAGCAAUAUUACGGUAG	-1.89 ± 0.12	-1.82 ± 0.11
UGGAAGCAAUAUUACGUAAG	-1.07 ± 0.12	-0.81 ± 0.13
UGGAAGCAAUAUUACGUACA	-0.926 ± 0.1	0.227 ± 0.11
UGGAAGCAAUAUUACGUCGG	-0.128 ± 0.11	-0.162 ± 0.11
UGGAAGCAAUAUUACGUGUG	-1.06 ± 0.073	-0.706 ± 0.091
UGGAAGCAAUAUUACGUUAU	-2.23 ± 0.14	-3.09 ± 0.2
UGGAAGCAAUAUUACGUUCG	0.201 ± 0.087	-0.347 ± 0.096
UGGCAGCAAUAUUACGAAUA	-1.36 ± 0.12	-0.17 ± 0.13
UGGCAGCAAUAUUACGAGAG	-2.95 ± 0.21	-2.74 ± 0.29
UGGCAGCAAUAUUACGAGCC	-2.1 ± 0.29	-2.37 ± 0.44
UGGCAGCAAUAUUACGAUCA	-0.413 ± 0.14	-0.198 ± 0.12
UGGCAGCAAUAUUACGCAAA	-1.87 ± 0.23	-0.513 ± 0.26
UGGCAGCAAUAUUACGCAGU	-4.13 ± 0.36	-2.57 ± 0.21
UGGCAGCAAUAUUACGCAUU	-1.05 ± 0.097	-0.267 ± 0.089
UGGCAGCAAUAUUACGCGAA	-0.273 ± 0.088	-0.139 ± 0.1
UGGCAGCAAUAUUACGCGUU	-1.6 ± 0.077	-0.555 ± 0.081
UGGCAGCAAUAUUACGGAAU	-2.54 ± 0.12	-1.22 ± 0.17
UGGCAGCAAUAUUACGGACG	0.0917 ± 0.19	0.916 ± 0.24
UGGCAGCAAUAUUACGGAGU	-2.61 ± 0.17	-3.96 ± 0.31
UGGCAGCAAUAUUACGGCCU	-1.91 ± 0.18	-1.57 ± 0.18
UGGCAGCAAUAUUACGGGAA	-2.17 ± 0.13	-0.784 ± 0.1
UGGCAGCAAUAUUACGGUAG	-0.874 ± 0.062	-0.684 ± 0.084

Sequence	self-splicing fitness (ln) (30 °C)	self-splicing fitness (ln) (37 °C)
UGGCAGCAAUAUUACGGUCC	-0.382 ± 0.16	0.88 ± 0.13
UGGCAGCAAUAUUACGUAAA	-0.723 ± 0.077	-0.922 ± 0.093
UGGCAGCAAUAUUACGUACA	0.117 ± 0.071	0.116 ± 0.1
UGGCAGCAAUAUUACGUAUC	-3.85 ± 0.31	-1.82 ± 0.25
UGGCAGCAAUAUUACGUCAG	-0.12 ± 0.074	-0.817 ± 0.11
UGGCAGCAAUAUUACGUCUC	-1.64 ± 0.11	-0.21 ± 0.13
UGGCAGCAAUAUUACGUUGC	-3.77 ± 0.19	-2.37 ± 0.13
UGGGAGCAAUAUUACGAGUG	-2.24 ± 0.31	-0.927 ± 0.28
UGGGAGCAAUAUUACGCAUC	-3 ± 0.32	-2.58 ± 0.38
UGGGAGCAAUAUUACGCGGA	–	-2.73 ± 0.34
UGGGAGCAAUAUUACGCUAG	-2.79 ± 0.32	-1.99 ± 0.36
UGGGAGCAAUAUUACGGCAU	–	-2.47 ± 0.45
UGGGAGCAAUAUUACGUAAG	-0.459 ± 0.15	-1.12 ± 0.2
UGGGAGCAAUAUUACGUACU	–	-2.02 ± 0.33
UGGGAGCAAUAUUACGUCUA	-1.22 ± 0.12	-0.187 ± 0.16
UGGGAGCAAUAUUACGUCUC	-3.13 ± 0.32	-2.93 ± 0.44
UGGGAGCAAUAUUACGUGUG	-1.75 ± 0.22	-2.26 ± 0.33
UGGGAGCAAUAUUACGUUUG	-3.75 ± 0.27	-2.14 ± 0.27
UGGUAGCAAUAUUACGACGC	–	1.38 ± 0.5
UGGUAGCAAUAUUACGCAGA	-2.45 ± 0.16	-0.684 ± 0.1
UGGUAGCAAUAUUACGCAUA	-1.11 ± 0.22	-0.547 ± 0.17
